Assay results taken from patent publication US20140087995A1 (published 2014).
Numbering of substitutions follows the chain as printed. Numbered stars: 1 amine (or outer) side, 2 acyl side, 3 side chain; on linkers, the order of the positions; unused ones are H or OH. Bridge positions count the residues as written; N and C are the ends. Side chains are listed from the residue outwards. Ends that are not written are not given here. * marks the point of attachment. C20 diacid = O=C(O)CCCCCCCCCCCCCCCCCCC(=O)*; γGlu = O=C(O)[C@H](CCC(=O)[*:2])N[*:1]

T1: human amylin receptor (amylin 3(a) receptor: human calcitonin receptor with RAMP-3) (human, UniProt P30988 25-474; O60896 24-148)
T1 sequence (looked up) 1: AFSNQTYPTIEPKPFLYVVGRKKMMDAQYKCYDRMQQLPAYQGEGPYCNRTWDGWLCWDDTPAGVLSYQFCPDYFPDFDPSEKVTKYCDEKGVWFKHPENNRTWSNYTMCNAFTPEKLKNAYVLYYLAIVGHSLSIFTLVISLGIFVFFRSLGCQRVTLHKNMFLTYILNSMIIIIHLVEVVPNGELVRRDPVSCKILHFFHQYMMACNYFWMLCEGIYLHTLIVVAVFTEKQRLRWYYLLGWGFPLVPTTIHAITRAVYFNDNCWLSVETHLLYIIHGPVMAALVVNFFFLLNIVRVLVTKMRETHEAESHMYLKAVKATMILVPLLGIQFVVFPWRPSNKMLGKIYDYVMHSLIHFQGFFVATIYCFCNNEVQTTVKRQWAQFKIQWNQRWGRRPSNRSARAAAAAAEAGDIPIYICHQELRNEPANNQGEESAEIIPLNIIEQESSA
T1 sequence (looked up) 2: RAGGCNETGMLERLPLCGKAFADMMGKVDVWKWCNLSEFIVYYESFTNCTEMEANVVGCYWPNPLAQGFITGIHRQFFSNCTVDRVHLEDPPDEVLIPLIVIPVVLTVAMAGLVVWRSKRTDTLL

T2: human calcitonin receptor (human, UniProt P30988 25-474)
T2 sequence (looked up): T1 sequence (looked up) 1

T3: human amylin receptor (amylin 3(a) receptor: human calcitonin receptor plus RAMP-3) (human, UniProt P30988 25-474; O60896 24-148, limits assumed)
T3 sequence (looked up) 1: T1 sequence (looked up) 1
T3 sequence (looked up) 2: T1 sequence (looked up) 2

T4: human calcitonin receptor (human, UniProt P30988 25-474)
T4 sequence (looked up): T1 sequence (looked up) 1

B1: N^ε1-[(4S)-4-carboxy-4-[[(4S)-4-carboxy-4-(19-carboxynonadecanoylamino)butanoyl]amino]butanoyl]-[Asp14,Arg17,Pro21,Pro27,Asp35]-h-amylin (peptide)
peptide: K([γGlu-γGlu-C20 diacid])CNTATCATQRLADFLRHSSPNFGAIPSSTNVGSDTY-NH2
modifications: disulfide 2-7; N-terminus assumed
SMILES: CC[C@H](C)[C@H](NC(=O)[C@H](C)NC(=O)CNC(=O)[C@H](Cc1ccccc1)NC(=O)[C@H](CC(N)=O)NC(=O)[C@@H]1CCCN1C(=O)[C@H](CO)NC(=O)[C@H](CO)NC(=O)[C@H](Cc1c[nH]cn1)NC(=O)[C@H](CCCNC(=N)N)NC(=O)[C@H](CC(C)C)NC(=O)[C@H](Cc1ccccc1)NC(=O)[C@H](CC(=O)O)NC(=O)[C@H](C)NC(=O)[C@H](CC(C)C)NC(=O)[C@H](CCCNC(=N)N)NC(=O)[C@H](CCC(N)=O)NC(=O)[C@@H](NC(=O)[C@H](C)NC(=O)[C@@H]1CSSC[C@H](NC(=O)[C@@H](N)CCCCNC(=O)CC[C@H](NC(=O)CC[C@H](NC(=O)CCCCCCCCCCCCCCCCCCC(=O)O)C(=O)O)C(=O)O)C(=O)N[C@@H](CC(N)=O)C(=O)N[C@@H]([C@@H](C)O)C(=O)N[C@@H](C)C(=O)N[C@@H]([C@@H](C)O)C(=O)N1)[C@@H](C)O)C(=O)N1CCC[C@H]1C(=O)N[C@@H](CO)C(=O)N[C@@H](CO)C(=O)N[C@H](C(=O)N[C@@H](CC(N)=O)C(=O)N[C@H](C(=O)NCC(=O)N[C@@H](CO)C(=O)N[C@@H](CC(=O)O)C(=O)N[C@H](C(=O)N[C@@H](Cc1ccc(O)cc1)C(N)=O)[C@@H](C)O)C(C)C)[C@@H](C)O
notes: also called compound 2
B2: N^ε1-[(4S)-4-carboxy-4-[[(4S)-4-carboxy-4-(19-carboxynonadecanoylamino)butanoyl]amino]butanoyl]-[Glu14,Arg17,Pro21,Pro27,Pro37]-h-amylin (peptide)
peptide: K([γGlu-γGlu-C20 diacid])CNTATCATQRLAEFLRHSSPNFGAIPSSTNVGSNTP-NH2
modifications: disulfide 2-7; N-terminus assumed
SMILES: CC[C@H](C)[C@H](NC(=O)[C@H](C)NC(=O)CNC(=O)[C@H](Cc1ccccc1)NC(=O)[C@H](CC(N)=O)NC(=O)[C@@H]1CCCN1C(=O)[C@H](CO)NC(=O)[C@H](CO)NC(=O)[C@H](Cc1c[nH]cn1)NC(=O)[C@H](CCCNC(=N)N)NC(=O)[C@H](CC(C)C)NC(=O)[C@H](Cc1ccccc1)NC(=O)[C@H](CCC(=O)O)NC(=O)[C@H](C)NC(=O)[C@H](CC(C)C)NC(=O)[C@H](CCCNC(=N)N)NC(=O)[C@H](CCC(N)=O)NC(=O)[C@@H](NC(=O)[C@H](C)NC(=O)[C@@H]1CSSC[C@H](NC(=O)[C@@H](N)CCCCNC(=O)CC[C@H](NC(=O)CC[C@H](NC(=O)CCCCCCCCCCCCCCCCCCC(=O)O)C(=O)O)C(=O)O)C(=O)N[C@@H](CC(N)=O)C(=O)N[C@@H]([C@@H](C)O)C(=O)N[C@@H](C)C(=O)N[C@@H]([C@@H](C)O)C(=O)N1)[C@@H](C)O)C(=O)N1CCC[C@H]1C(=O)N[C@@H](CO)C(=O)N[C@@H](CO)C(=O)N[C@H](C(=O)N[C@@H](CC(N)=O)C(=O)N[C@H](C(=O)NCC(=O)N[C@@H](CO)C(=O)N[C@@H](CC(N)=O)C(=O)N[C@H](C(=O)N1CCC[C@H]1C(N)=O)[C@@H](C)O)C(C)C)[C@@H](C)O
notes: also called compound 13
B3: N^ε1-[(4S)--4-carboxy-4-(19-carboxynonadecanoylamino)butanoyl]-[Glu14,Arg17,Pro21,Pro27,Pro37]-h-amylin (peptide)
peptide: K([γGlu-C20 diacid])CNTATCATQRLAEFLRHSSPNFGAIPSSTNVGSNTP-NH2
modifications: disulfide 2-7; N-terminus assumed
SMILES: CC[C@H](C)[C@H](NC(=O)[C@H](C)NC(=O)CNC(=O)[C@H](Cc1ccccc1)NC(=O)[C@H](CC(N)=O)NC(=O)[C@@H]1CCCN1C(=O)[C@H](CO)NC(=O)[C@H](CO)NC(=O)[C@H](Cc1c[nH]cn1)NC(=O)[C@H](CCCNC(=N)N)NC(=O)[C@H](CC(C)C)NC(=O)[C@H](Cc1ccccc1)NC(=O)[C@H](CCC(=O)O)NC(=O)[C@H](C)NC(=O)[C@H](CC(C)C)NC(=O)[C@H](CCCNC(=N)N)NC(=O)[C@H](CCC(N)=O)NC(=O)[C@@H](NC(=O)[C@H](C)NC(=O)[C@@H]1CSSC[C@H](NC(=O)[C@@H](N)CCCCNC(=O)CC[C@H](NC(=O)CCCCCCCCCCCCCCCCCCC(=O)O)C(=O)O)C(=O)N[C@@H](CC(N)=O)C(=O)N[C@@H]([C@@H](C)O)C(=O)N[C@@H](C)C(=O)N[C@@H]([C@@H](C)O)C(=O)N1)[C@@H](C)O)C(=O)N1CCC[C@H]1C(=O)N[C@@H](CO)C(=O)N[C@@H](CO)C(=O)N[C@H](C(=O)N[C@@H](CC(N)=O)C(=O)N[C@H](C(=O)NCC(=O)N[C@@H](CO)C(=O)N[C@@H](CC(N)=O)C(=O)N[C@H](C(=O)N1CCC[C@H]1C(N)=O)[C@@H](C)O)C(C)C)[C@@H](C)O
notes: also called compound 12
B4: N{Alpha-1}-[(4S)-4-carboxy-4-(19-carboxynonadecanoylamino)butanoyl]-[Glu14,Arg17,Pro21,Pro27,Lys34]-h-amylin (peptide)
peptide: {C20 diacid-γGlu}-KCNTATCATQRLAEFLRHSSPNFGAIPSSTNVGKNTY-NH2
modifications: disulfide 2-7
SMILES: CC[C@H](C)[C@H](NC(=O)[C@H](C)NC(=O)CNC(=O)[C@H](Cc1ccccc1)NC(=O)[C@H](CC(N)=O)NC(=O)[C@@H]1CCCN1C(=O)[C@H](CO)NC(=O)[C@H](CO)NC(=O)[C@H](Cc1c[nH]cn1)NC(=O)[C@H](CCCNC(=N)N)NC(=O)[C@H](CC(C)C)NC(=O)[C@H](Cc1ccccc1)NC(=O)[C@H](CCC(=O)O)NC(=O)[C@H](C)NC(=O)[C@H](CC(C)C)NC(=O)[C@H](CCCNC(=N)N)NC(=O)[C@H](CCC(N)=O)NC(=O)[C@@H](NC(=O)[C@H](C)NC(=O)[C@@H]1CSSC[C@H](NC(=O)[C@H](CCCCN)NC(=O)CC[C@H](NC(=O)CCCCCCCCCCCCCCCCCCC(=O)O)C(=O)O)C(=O)N[C@@H](CC(N)=O)C(=O)N[C@@H]([C@@H](C)O)C(=O)N[C@@H](C)C(=O)N[C@@H]([C@@H](C)O)C(=O)N1)[C@@H](C)O)C(=O)N1CCC[C@H]1C(=O)N[C@@H](CO)C(=O)N[C@@H](CO)C(=O)N[C@H](C(=O)N[C@@H](CC(N)=O)C(=O)N[C@H](C(=O)NCC(=O)N[C@@H](CCCCN)C(=O)N[C@@H](CC(N)=O)C(=O)N[C@H](C(=O)N[C@@H](Cc1ccc(O)cc1)C(N)=O)[C@@H](C)O)C(C)C)[C@@H](C)O
notes: also called compound 36
B5: N^α1 N^α1-[(4S)-4-carboxy-4-[[(4S)-4-carboxy-4-(19-carboxynonadecanoylamino)butanoyl]amino]butanoyl]-[Glu14,Arg17,Pro21,Pro27]-h-amylin (peptide)
peptide: {C20 diacid-γGlu-γGlu}-KCNTATCATQRLAEFLRHSSPNFGAIPSSTNVGSNTY-NH2
modifications: disulfide 2-7
SMILES: CC[C@H](C)[C@H](NC(=O)[C@H](C)NC(=O)CNC(=O)[C@H](Cc1ccccc1)NC(=O)[C@H](CC(N)=O)NC(=O)[C@@H]1CCCN1C(=O)[C@H](CO)NC(=O)[C@H](CO)NC(=O)[C@H](Cc1c[nH]cn1)NC(=O)[C@H](CCCNC(=N)N)NC(=O)[C@H](CC(C)C)NC(=O)[C@H](Cc1ccccc1)NC(=O)[C@H](CCC(=O)O)NC(=O)[C@H](C)NC(=O)[C@H](CC(C)C)NC(=O)[C@H](CCCNC(=N)N)NC(=O)[C@H](CCC(N)=O)NC(=O)[C@@H](NC(=O)[C@H](C)NC(=O)[C@@H]1CSSC[C@H](NC(=O)[C@H](CCCCN)NC(=O)CC[C@H](NC(=O)CC[C@H](NC(=O)CCCCCCCCCCCCCCCCCCC(=O)O)C(=O)O)C(=O)O)C(=O)N[C@@H](CC(N)=O)C(=O)N[C@@H]([C@@H](C)O)C(=O)N[C@@H](C)C(=O)N[C@@H]([C@@H](C)O)C(=O)N1)[C@@H](C)O)C(=O)N1CCC[C@H]1C(=O)N[C@@H](CO)C(=O)N[C@@H](CO)C(=O)N[C@H](C(=O)N[C@@H](CC(N)=O)C(=O)N[C@H](C(=O)NCC(=O)N[C@@H](CO)C(=O)N[C@@H](CC(N)=O)C(=O)N[C@H](C(=O)N[C@@H](Cc1ccc(O)cc1)C(N)=O)[C@@H](C)O)C(C)C)[C@@H](C)O
notes: also called compound 15
B6: N^α1-[2-[2-[2-[[2-[2-[2-[[(4S)-4-carboxy-4-(19-carboxynonadecanoylamino)butanoyl]amino]ethoxy]ethoxy]acetyl]amino]ethoxy]ethoxy]acetyl]-[Glu14,Arg17,Pro21,Pro27 … (peptide)
peptide: KCNTATCATQRLAEFLRHSSPNFGAIPSSTNVGSNTY
modifications: C20 diacid-gGlu-2xOEG on the alpha amino group of the N-terminal residue; disulfide bridge Cys2-Cys7; C-terminal amide
notes: also called compound 19
B7: N^α1-[(4S)-4-carboxy-4-(19-carboxynonadecanoylamino)butanoyl]-[Arg17,Pro21,Pro27,Arg34]-h-amylin (peptide)
peptide: B6 peptide with E14N, S34R
modifications: C20 diacid-gGlu on the alpha amino group of the N-terminal residue; Cys2-Cys7 disulfide and C-terminal amide as in human amylin
notes: also called compound 39
B8: N^α1-[(4S)-4-carboxy-4-(19-carboxynonadecanoylamino)butanoyl]-[Arg17,Pro21,Pro27,Glu35]-h-amylin (peptide)
peptide: B6 peptide with E14N, N35E
modifications: C20 diacid-gGlu on the alpha amino group of the N-terminal residue; Cys2-Cys7 disulfide and C-terminal amide as in human amylin
notes: also called compound 23
B9: N^α1-[(4S)-4-carboxy-4-(19-carboxynonadecanoylamino)butanoyl]-[Arg17,Pro21,Pro27,His34]-h-amylin (peptide)
peptide: B6 peptide with E14N, S34H
modifications: C20 diacid-gGlu on the alpha amino group of the N-terminal residue; Cys2-Cys7 disulfide and C-terminal amide as in human amylin
notes: also called compound 40

Target: T1, human amylin receptor (amylin 3(a) …)
Test: cell-based or functional assay

Row | Binder | hAmylin-R funct. EC50
1 | B1 | 182 pM
2 | B2 | 213 pM
3 | B3 | 101 pM
4 | B4 | 189 pM
5 | B5 | 386 pM
6 | B6 | 307 pM

Target: T2, human calcitonin receptor
Test: cell-based or functional assay

Row | Binder | Ratio hCT/hAmylin funct. | hCTR funct. EC50
7 | B1 | 16.4 | 3000 pM
8 | B2 | 2.2 | 470 pM
9 | B3 | 1.8 | 185 pM
10 | B4 | 6.8 | 1280 pM
11 | B5 | 8.9 | 3430 pM
12 | B6 | 17.4 | 5320 pM

Target: T3, human amylin receptor (amylin 3(a) …)
Test: cell-based or functional assay

Row | Binder | hAmylin-R funct. EC50
13 | B7 | 217 pM
14 | B8 | 340 pM
15 | B9 | 164 pM

Target: T4, human calcitonin receptor
Test: cell-based or functional assay

Row | Binder | Ratio hCT/hAmylin funct. (hCTR EC50 against hAmylin-R EC50) | hCTR funct. EC50
16 | B7 | 11.6 | 2520 pM
17 | B8 | 8.9 | 3020 pM
18 | B9 | 16.4 | 2680 pM
